± gives the uncertainty stated by the source.
B1: Formin-binding protein 4, residues 200 to 261; numbered along this chain, Q8N3X1 (parent)
chain: SGWQYDTQCSLAGVGIEMGDWQEVWDENTGCYYYWNTQTNEVTWELPQYLATQVQGLQHYQP

Variants of: B1
Assay: abundance fitness (aPCA) (normalised: wild type 0, dead -1); higher = more abundant; growth selection in yeast, the domain comes from the species named
Conditions: Homo sapiens

Variant | abundance fitness
SGWQYGTQCSLAGVGIEMGDWQEVWDENTGCYYYWNTQTNEVTWELPQYLATQVQGLQHYQP [D6G] | -0.17 ± 0.068
SGWQYHTQCSLAGVGIEMGDWQEVWDENTGCYYYWNTQTNEVTWELPQYLATQVQGLQHYQP [D6H] | -0.282 ± 0.12
SGWQYQTQCSLAGVGIEMGDWQEVWDENTGCYYYWNTQTNEVTWELPQYLATQVQGLQHYQP [D6Q] | -0.785 ± 0.17
SGWQYWTQCSLAGVGIEMGDWQEVWDENTGCYYYWNTQTNEVTWELPQYLATQVQGLQHYQP [D6W] | -0.555 ± 0.1
SGWQYPTQCSLAGVGIEMGDWQEVWDENTGCYYYWNTQTNEVTWELPQYLATQVQGLQHYQP [D6P] | -0.706 ± 0.13
SGWQYFTQCSLAGVGIEMGDWQEVWDENTGCYYYWNTQTNEVTWELPQYLATQVQGLQHYQP [D6F] | -0.492 ± 0.1
SGWQYRTQCSLAGVGIEMGDWQEVWDENTGCYYYWNTQTNEVTWELPQYLATQVQGLQHYQP [D6R] | -0.14 ± 0.064
SGWQYVTQCSLAGVGIEMGDWQEVWDENTGCYYYWNTQTNEVTWELPQYLATQVQGLQHYQP [D6V] | -0.829 ± 0.1
SGWQYATQCSLAGVGIEMGDWQEVWDENTGCYYYWNTQTNEVTWELPQYLATQVQGLQHYQP [D6A] | -0.354 ± 0.081
SGWQYKTQCSLAGVGIEMGDWQEVWDENTGCYYYWNTQTNEVTWELPQYLATQVQGLQHYQP [D6K] | 0.009 ± 0.088
SGWQYTTQCSLAGVGIEMGDWQEVWDENTGCYYYWNTQTNEVTWELPQYLATQVQGLQHYQP [D6T] | -0.139 ± 0.081
SGWQYETQCSLAGVGIEMGDWQEVWDENTGCYYYWNTQTNEVTWELPQYLATQVQGLQHYQP [D6E] | -0.135 ± 0.086
SGWQYYTQCSLAGVGIEMGDWQEVWDENTGCYYYWNTQTNEVTWELPQYLATQVQGLQHYQP [D6Y] | -0.644 ± 0.14
SGWQYCTQCSLAGVGIEMGDWQEVWDENTGCYYYWNTQTNEVTWELPQYLATQVQGLQHYQP [D6C] | -0.342 ± 0.11
SGWQYSTQCSLAGVGIEMGDWQEVWDENTGCYYYWNTQTNEVTWELPQYLATQVQGLQHYQP [D6S] | -0.35 ± 0.07
SGWQYITQCSLAGVGIEMGDWQEVWDENTGCYYYWNTQTNEVTWELPQYLATQVQGLQHYQP [D6I] | -0.228 ± 0.11
SGWQYDGQCSLAGVGIEMGDWQEVWDENTGCYYYWNTQTNEVTWELPQYLATQVQGLQHYQP [T7G] | -0.06 ± 0.069
SGWQYDEQCSLAGVGIEMGDWQEVWDENTGCYYYWNTQTNEVTWELPQYLATQVQGLQHYQP [T7E] | -0.392 ± 0.1
SGWQYDWQCSLAGVGIEMGDWQEVWDENTGCYYYWNTQTNEVTWELPQYLATQVQGLQHYQP [T7W] | -0.493 ± 0.096
SGWQYDIQCSLAGVGIEMGDWQEVWDENTGCYYYWNTQTNEVTWELPQYLATQVQGLQHYQP [T7I] | -0.453 ± 0.13
SGWQYDMQCSLAGVGIEMGDWQEVWDENTGCYYYWNTQTNEVTWELPQYLATQVQGLQHYQP [T7M] | -0.37 ± 0.1
SGWQYDSQCSLAGVGIEMGDWQEVWDENTGCYYYWNTQTNEVTWELPQYLATQVQGLQHYQP [T7S] | 0.002 ± 0.063

Variant | abundance fitness
SGWQYDRQCSLAGVGIEMGDWQEVWDENTGCYYYWNTQTNEVTWELPQYLATQVQGLQHYQP [T7R] | -0.061 ± 0.062
SGWQYDAQCSLAGVGIEMGDWQEVWDENTGCYYYWNTQTNEVTWELPQYLATQVQGLQHYQP [T7A] | 0.017 ± 0.067
SGWQYDNQCSLAGVGIEMGDWQEVWDENTGCYYYWNTQTNEVTWELPQYLATQVQGLQHYQP [T7N] | 0.124 ± 0.1
SGWQYDFQCSLAGVGIEMGDWQEVWDENTGCYYYWNTQTNEVTWELPQYLATQVQGLQHYQP [T7F] | -0.461 ± 0.11
SGWQYDCQCSLAGVGIEMGDWQEVWDENTGCYYYWNTQTNEVTWELPQYLATQVQGLQHYQP [T7C] | 0.051 ± 0.076
SGWQYDVQCSLAGVGIEMGDWQEVWDENTGCYYYWNTQTNEVTWELPQYLATQVQGLQHYQP [T7V] | -0.262 ± 0.067
SGWQYDKQCSLAGVGIEMGDWQEVWDENTGCYYYWNTQTNEVTWELPQYLATQVQGLQHYQP [T7K] | -0.036 ± 0.093
SGWQYDPQCSLAGVGIEMGDWQEVWDENTGCYYYWNTQTNEVTWELPQYLATQVQGLQHYQP [T7P] | -0.309 ± 0.083
SGWQYDLQCSLAGVGIEMGDWQEVWDENTGCYYYWNTQTNEVTWELPQYLATQVQGLQHYQP [T7L] | -0.452 ± 0.068
SGWQYDYQCSLAGVGIEMGDWQEVWDENTGCYYYWNTQTNEVTWELPQYLATQVQGLQHYQP [T7Y] | -0.181 ± 0.11
SGWQYDHQCSLAGVGIEMGDWQEVWDENTGCYYYWNTQTNEVTWELPQYLATQVQGLQHYQP [T7H] | -0.318 ± 0.13
SGWQYDQQCSLAGVGIEMGDWQEVWDENTGCYYYWNTQTNEVTWELPQYLATQVQGLQHYQP [T7Q] | -0.012 ± 0.084
SGWQYDDQCSLAGVGIEMGDWQEVWDENTGCYYYWNTQTNEVTWELPQYLATQVQGLQHYQP [T7D] | -0.314 ± 0.11
SGWQYDTECSLAGVGIEMGDWQEVWDENTGCYYYWNTQTNEVTWELPQYLATQVQGLQHYQP [Q8E] | 0.123 ± 0.084
SGWQYDTACSLAGVGIEMGDWQEVWDENTGCYYYWNTQTNEVTWELPQYLATQVQGLQHYQP [Q8A] | 0.29 ± 0.062
SGWQYDTTCSLAGVGIEMGDWQEVWDENTGCYYYWNTQTNEVTWELPQYLATQVQGLQHYQP [Q8T] | 0.187 ± 0.067
SGWQYDTRCSLAGVGIEMGDWQEVWDENTGCYYYWNTQTNEVTWELPQYLATQVQGLQHYQP [Q8R] | 0.046 ± 0.053
SGWQYDTCCSLAGVGIEMGDWQEVWDENTGCYYYWNTQTNEVTWELPQYLATQVQGLQHYQP [Q8C] | -0.188 ± 0.091
SGWQYDTKCSLAGVGIEMGDWQEVWDENTGCYYYWNTQTNEVTWELPQYLATQVQGLQHYQP [Q8K] | 0.239 ± 0.08
SGWQYDTLCSLAGVGIEMGDWQEVWDENTGCYYYWNTQTNEVTWELPQYLATQVQGLQHYQP [Q8L] | -0.369 ± 0.061
SGWQYDTSCSLAGVGIEMGDWQEVWDENTGCYYYWNTQTNEVTWELPQYLATQVQGLQHYQP [Q8S] | 0.164 ± 0.055
